Assay results: the supplement of paper PMC9170038

System: MS2 coat protein
Assay: apparent KD of MS2 coat protein; designed switch direction (-1 OFF switch, 1 ON switch): -1; higher = weaker reporter binding
Method in brief: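 Apparent KD, taken as the median over clusters for each design, was obtained by curve-fitting normalised cluster fluorescence. Designed RNA switches had been transcribed on Illumina chips by stalled E. coli RNA polymerase and titrated with SNAP-549-labelled MS2 coat protein, doubling from 0.7 or 1.5 nM to 3 µM.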

[1] = input ligand: microRNA oligo, concentration not stated
[2] = Eterna round: R95, input ligand: microRNA oligo, concentration not stated
[3] = Eterna round: R95, input ligand: FMN 200 uM
[4] = Eterna round: R95, input ligand: none

Sequence	apparent KD of MS2 coat protein [1] [nM]	apparent KD of MS2 coat protein (input ligand: FMN 200 uM) [nM]	apparent KD of MS2 coat protein (input ligand: none) [nM]	apparent KD of MS2 coat protein [2] [nM]	also measured
UUUGUAUAGCAAGGAUAUGUUUAAUUAUAGUUGCCUCAUACAUGAGGAUCACCCAUGUUUUACUUACAGAAGGUGCAAUGAUUU [JR_ExcNG2_Sub035] (Eterna round: R96, puzzle: Exclusion NG 2)	242	–	–	–	–
GGAAGGCGAGGAUAUACAAUAAAGAAAGAGAAAGACGUGAGACAUGAGGAUCACCCAUGUAGAAGGUGCGGAGA [AK-MS2ROC-r4-exclusion2-13] (Eterna round: R97, puzzle: Exclusion 2)	–	37.3	34.3	–	–
GUCAUGUUAGGAUAUCAAACAUGUGACUUCGGUCACUGUCCUGAGAAGGAACAUGAGGAUCACCCAUGUUGGAC [Ex4-3: 57] (puzzle: Exclusion 4)	–	–	–	16.2	–
AUCGUGCAGCAAAGCUGUACGAGUACAUGAGGAUCACCCAUGUAGGAUAUGGUACGCAAAGCGUGCUAGAAGGAUAUGUGUAGG [Mat - Exclusion NG 3 - Mod of JL - D84] (Eterna round: R96, puzzle: Exclusion NG 3)	44.6	69.6	57.1	–	–
AUCUGUGAGCGAGGAUAUCUGCUGUUGUCGGUCGGAGAAGGCGCGGACAGAACAUGAGGAUCACCCAUGUGUAUGGGCGGCCUC [Isvetima] (Eterna round: R96, puzzle: Exclusion NG 1)	14.1	256	99.6	–	–
GUGUACGAAGGAUAUACAUGAGGAUCACCCAUGUGAAUAAGAUAGAAUAAGAUAAAGUGUAGAAGGUCGAGUGU [Excluse me!!! 7 - Jieux - Exclusion 3] (puzzle: Exclusion 3)	–	–	–	27.1	–
UCAUACGUUGAGGAUAUCUCAGUUAGAAUAUUUAGAGAAGGCGAUACAUGAGGAUCACCCAUGUUUAUGGGCAU [Ex-6 Malc#6] (puzzle: Exclusion 6)	–	–	–	286	apparent KD of MS2 coat protein [3]: 346 nM; apparent KD of MS2 coat protein [4]: 461 nM
UUCAUGUGAGGAUAUGUGAUCUGCUUUCUGUGUAGAUGAUCACAGAAGGCACAUGAGGAUCACCCAUGUAGAUC [Ex4 - 3 - 29] (puzzle: Exclusion 4)	–	–	–	77.3	–
AAACAAGCAACGAGAUCCCACAUGAGGAUCACCCAUGUCAACUGGAGUUUUAAAUCUUUAGGCUCGUUUUAUAACAA [S_tov1_V1.2] (Eterna round: R97, puzzle: Sensor, turn-off variant 1)	–	50.4	56.8	–	–
GCCCUUAUUGUUAGGAUAUAACGGAAAUACAACCGUUAGAAGGAACAUGAGGAUCACCCAUGUGCCAUACAGCC [Eternabot (Original) Solution 39] (Eterna round: R97, puzzle: Brourd's mod of Exclusion 4)	–	119	29.5	–	–
GUGUGUGAUGUAGGAUAUACGAGACAUGAGGAUCACCCAUGUGAGGGAAGGAGAAGGAGAAGAGAGUAGAAGGAUAGAGUGUGA [Default title] (Eterna round: R96, puzzle: Exclusion NG 2)	144	133	131	–	–
AGGAAUGAAGGAUAUACAUGAGGAUCACCCAUGUAAAACAAGAGAUUUGAUGUAUAAUGUAGAAGGUCAAGAAG [JR_Exclusion3_Sub003] (puzzle: Exclusion 3)	–	–	–	30.5	apparent KD of MS2 coat protein [3]: 25.2 nM; apparent KD of MS2 coat protein [4]: 35.5 nM
ACAGUUCUGCAAGGAUAUCGUCCUAGUUUGUUUCGAGAAGGUGCUUUAGUUUAUUCCUUUUGUUUACAUGAGGAUCACCCAUGU [JR_ExcNG1_Sub050] (Eterna round: R96, puzzle: Exclusion NG 1)	18	–	–	–	–
AAGAAUCUAGGAUAUUAGCGGGCCUACAUGAGGAUCACCCAUGUCGUGUCGCGGGUAUGCUGAGAAGGAGAGCACA [EX5 B.5] (Eterna round: R97, puzzle: Exclusion 5)	–	16.3	16.3	–	–
